Reference: US6608174B1, “Radiolabeled vasoactive intestinal peptide analogs for diagnosis and radiotherapy” (Dabur Research Foundation, priority 2000, dated 2003)
Square brackets hold non-standard residues; d marks the D form. Peptide text beside a SMILES is read from it. * marks the point of attachment. DTPA = O=C(O)CN(CCN(CC(=O)O)CC(=O)O)CCN(CC(=O)O)CC(=O)*; dPhe(4-Cl) = N[C@H](Cc1ccc(Cl)cc1)C(=O)O; Aib = CC(C)(N)C(=O)O; Ahx = NCCCCCC(=O)O

Tested on: human adenocarcinoma tumor
Parameters: species or system NIH nu/nu nude mice
Settings: mouse, in vivo, iv
Text: Tc-99m labeled peptide (SEQ ID NO: 10) was used to image tumors induced subcutaneously in the abdomen of NIH nu/nu nude mice. Following intravenous administration in human adenocarcinoma tumor bearing nude mice, images were taken at different time intervals post […], using a conventional gamma camera. […] The results are shown in FIG. 1 which clearly depicts that the accumulation of Tc-99m labeled VIP analog is high in tumor (indicated with arrow) as compared to the accumulation in viscera (unmarked dots) after 3 hours of injection.

Structure (SMILES): CC[C@H](C)[C@H](NC(=O)[C@H](CO)NC(=O)[C@H](CC(N)=O)NC(=O)[C@H](CC(C)C)NC(=O)[C@H](Cc1ccc(O)cc1)NC(=O)[C@H](CCCCN)NC(=O)[C@H](CCCCN)NC(=O)[C@@H](NC(=O)[C@H](C)NC(=O)[C@H](CC(C)C)NC(=O)[C@H](CCC(N)=O)NC(=O)[C@H](CCCCN)NC(=O)[C@H](CCCNC(=N)N)NC(=O)[C@H](CC(C)C)NC(=O)[C@H](CCCNC(=N)N)NC(=O)[C@@H](NC(=O)[C@H](Cc1ccc(O)cc1)NC(=O)[C@H](CC(N)=O)NC(=O)[C@H](CC(=O)O)NC(=O)[C@@H](NC(=O)[C@@H](Cc1ccc(Cl)cc1)NC(=O)[C@@H](NC(=O)C(C)(C)NC(=O)[C@H](CC(=O)O)NC(=O)[C@H](CO)NC(=O)[C@H](Cc1c[nH]cn1)NC(=O)CCCCCNC(=O)CN(CCN(CCN(CC(=O)O)CC(=O)O)CC(=O)O)CC(=O)O)C(C)C)[C@@H](C)O)[C@@H](C)O)C(C)C)C(=O)N[C@@H](CC(C)C)C(=O)N[C@@H](CC(N)=O)C(N)=O [Tc-99m labeled peptide (SEQ ID NO: 10), metal not drawn] ({DTPA-Ahx}-HSD[Aib]V[dPhe(4-Cl)]TDNYTRLRKQLAVKKYLNSILN-NH2)
- accumulation in liver and kidney: little accumulation in liver and kidney
- blood clearance: rapid blood clearance
